Reference: patent publication US20180066029A1

Assays:
Experiment in all cases: CIDOP with next-generation sequencing, recovery of peaks
[1] = target: nucleosomes having both H3K9me3 and H3K36me3 (H3K36me2/3)
[2] = target: nucleosomes having only H3K36me3
[3] = target: nucleosomes having only H3K9me3
[4] = target: nucleosomes having neither H3K9me3 nor H3K36me3

percent of genome regions of this state detected by PM [1]: 80.9%
percent of genome regions of this state isolated by PM [2]: 6.66%
percent of genome regions of this state isolated by PM [3]: 6.2%
percent of genome regions of this state isolated by PM [4]: 0.04%
Substance: artificial protein PM (PWWP domain of Dnmt3a, naturally occurring linker of 21 amino acids, chromodomain of MPP8, N-terminal GST tag) (designed binder)
